Consider seven molecules from US20190185537A1 (AstraZeneca / MedImmune, published 2019).

Test in all cases: cell-based or functional assay
Assay [1] deals with human glucagon receptor (human, UniProt P47871 26-477).
Assay [2] addresses T1, human glucose-dependent insulinotropic peptide (gastric inhibitory polypeptide) receptor (human) (UniProt P48546).
T1 sequence (looked up): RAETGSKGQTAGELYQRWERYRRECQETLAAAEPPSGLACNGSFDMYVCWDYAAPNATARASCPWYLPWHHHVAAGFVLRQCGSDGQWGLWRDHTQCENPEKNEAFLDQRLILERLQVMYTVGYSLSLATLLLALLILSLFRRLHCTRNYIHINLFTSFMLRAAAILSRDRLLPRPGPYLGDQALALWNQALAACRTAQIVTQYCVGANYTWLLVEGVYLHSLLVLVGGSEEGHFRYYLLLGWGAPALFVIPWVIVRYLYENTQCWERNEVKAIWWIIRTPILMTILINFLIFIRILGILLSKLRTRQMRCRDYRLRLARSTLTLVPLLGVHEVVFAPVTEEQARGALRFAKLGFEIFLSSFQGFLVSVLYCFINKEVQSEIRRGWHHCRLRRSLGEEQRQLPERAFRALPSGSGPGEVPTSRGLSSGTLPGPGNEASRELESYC

For assay [3], the target named is human GLP-1 receptor (human, UniProt P43220 24-463).
Chain of human GLP-1 receptor (P43220 24-463): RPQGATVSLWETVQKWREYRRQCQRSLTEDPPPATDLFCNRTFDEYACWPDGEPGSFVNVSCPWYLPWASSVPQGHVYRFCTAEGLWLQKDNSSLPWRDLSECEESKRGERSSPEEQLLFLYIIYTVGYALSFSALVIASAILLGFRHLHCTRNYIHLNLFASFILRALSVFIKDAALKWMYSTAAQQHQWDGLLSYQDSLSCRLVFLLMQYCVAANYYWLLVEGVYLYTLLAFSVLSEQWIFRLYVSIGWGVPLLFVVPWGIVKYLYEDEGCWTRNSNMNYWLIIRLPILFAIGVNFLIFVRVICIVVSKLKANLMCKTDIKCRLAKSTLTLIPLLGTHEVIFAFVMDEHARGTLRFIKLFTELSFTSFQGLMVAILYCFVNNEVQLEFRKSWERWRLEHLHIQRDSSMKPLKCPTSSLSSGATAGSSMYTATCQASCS

Numbered stars: 1 amine (or outer) side, 2 acyl side, 3 side chain; on linkers, the order of the positions; unused ones are H or OH. Side chains are listed from the residue outwards. Ends that are not written are not given here. * marks the point of attachment. γGlu = O=C(O)[C@H](CCC(=O)[*:2])N[*:1]; Palmitoyl = CCCCCCCCCCCCCCCC(=O)*; Ahx = NCCCCCC(=O)O; βAla = NCCC(=O)O

Chain of human glucagon receptor (P47871 26-477): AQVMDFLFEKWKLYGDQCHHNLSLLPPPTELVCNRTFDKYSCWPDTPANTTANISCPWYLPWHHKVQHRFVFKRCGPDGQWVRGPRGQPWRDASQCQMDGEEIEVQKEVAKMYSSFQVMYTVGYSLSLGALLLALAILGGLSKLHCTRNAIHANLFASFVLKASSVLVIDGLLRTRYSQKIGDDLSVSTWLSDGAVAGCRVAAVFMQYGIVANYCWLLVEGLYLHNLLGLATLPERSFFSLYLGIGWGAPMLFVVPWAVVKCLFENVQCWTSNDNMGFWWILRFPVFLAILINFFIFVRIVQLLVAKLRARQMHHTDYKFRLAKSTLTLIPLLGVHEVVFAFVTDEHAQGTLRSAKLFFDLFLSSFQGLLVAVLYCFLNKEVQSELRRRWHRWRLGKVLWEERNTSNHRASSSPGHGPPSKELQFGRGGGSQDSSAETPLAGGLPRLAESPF

B1: g513 (peptide)
peptide: HSEGTFTSDYSKYLDSK([γGlu-Palmitoyl])RAQDFVQWLEAGG-NH2
modifications: N-terminus assumed
SMILES: CCCCCCCCCCCCCCCC(=O)N[C@@H](CCC(=O)NCCCC[C@H](NC(=O)[C@H](CO)NC(=O)[C@H](CC(=O)O)NC(=O)[C@H](CC(C)C)NC(=O)[C@H](Cc1ccc(O)cc1)NC(=O)[C@H](CCCCN)NC(=O)[C@H](CO)NC(=O)[C@H](Cc1ccc(O)cc1)NC(=O)[C@H](CC(=O)O)NC(=O)[C@H](CO)NC(=O)[C@@H](NC(=O)[C@H](Cc1ccccc1)NC(=O)[C@@H](NC(=O)CNC(=O)[C@H](CCC(=O)O)NC(=O)[C@H](CO)NC(=O)[C@@H](N)Cc1c[nH]cn1)[C@@H](C)O)[C@@H](C)O)C(=O)N[C@@H](CCCNC(=N)N)C(=O)N[C@@H](C)C(=O)N[C@@H](CCC(N)=O)C(=O)N[C@@H](CC(=O)O)C(=O)N[C@@H](Cc1ccccc1)C(=O)N[C@H](C(=O)N[C@@H](CCC(N)=O)C(=O)N[C@@H](Cc1c[nH]c2ccccc12)C(=O)N[C@@H](CC(C)C)C(=O)N[C@@H](CCC(=O)O)C(=O)N[C@@H](C)C(=O)NCC(=O)NCC(N)=O)C(C)C)C(=O)O
For the molecule B1, the cAMP EC50 (assay 1) in assay [1] amounted to 0.723 nM; in assay [2], 298 nM; in assay [3], 0.175 nM.

B2: g512 (peptide)
peptide: HGQGTFTSDYSKYLDSK([γGlu-Palmitoyl])RAQDFVQWLEAGG-NH2
modifications: N-terminus assumed
SMILES: CCCCCCCCCCCCCCCC(=O)N[C@@H](CCC(=O)NCCCC[C@H](NC(=O)[C@H](CO)NC(=O)[C@H](CC(=O)O)NC(=O)[C@H](CC(C)C)NC(=O)[C@H](Cc1ccc(O)cc1)NC(=O)[C@H](CCCCN)NC(=O)[C@H](CO)NC(=O)[C@H](Cc1ccc(O)cc1)NC(=O)[C@H](CC(=O)O)NC(=O)[C@H](CO)NC(=O)[C@@H](NC(=O)[C@H](Cc1ccccc1)NC(=O)[C@@H](NC(=O)CNC(=O)[C@H](CCC(N)=O)NC(=O)CNC(=O)[C@@H](N)Cc1c[nH]cn1)[C@@H](C)O)[C@@H](C)O)C(=O)N[C@@H](CCCNC(=N)N)C(=O)N[C@@H](C)C(=O)N[C@@H](CCC(N)=O)C(=O)N[C@@H](CC(=O)O)C(=O)N[C@@H](Cc1ccccc1)C(=O)N[C@H](C(=O)N[C@@H](CCC(N)=O)C(=O)N[C@@H](Cc1c[nH]c2ccccc12)C(=O)N[C@@H](CC(C)C)C(=O)N[C@@H](CCC(=O)O)C(=O)N[C@@H](C)C(=O)NCC(=O)NCC(N)=O)C(C)C)C(=O)O
Consider B2, for which the cAMP EC50 (assay 1) in assay [1] came out at 0.0606 nM; in assay [2] it was 407 nM; in assay [3] it was 0.098 nM.

B3: g747 (peptide)
peptide: HSQGTFTSDYSKYLDSRRAQDFVQWLEAGGK([γGlu-Palmitoyl])-NH2
modifications: N-terminus assumed
SMILES: CCCCCCCCCCCCCCCC(=O)N[C@@H](CCC(=O)NCCCC[C@H](NC(=O)CNC(=O)CNC(=O)[C@H](C)NC(=O)[C@H](CCC(=O)O)NC(=O)[C@H](CC(C)C)NC(=O)[C@H](Cc1c[nH]c2ccccc12)NC(=O)[C@H](CCC(N)=O)NC(=O)[C@@H](NC(=O)[C@H](Cc1ccccc1)NC(=O)[C@H](CC(=O)O)NC(=O)[C@H](CCC(N)=O)NC(=O)[C@H](C)NC(=O)[C@H](CCCNC(=N)N)NC(=O)[C@H](CCCNC(=N)N)NC(=O)[C@H](CO)NC(=O)[C@H](CC(=O)O)NC(=O)[C@H](CC(C)C)NC(=O)[C@H](Cc1ccc(O)cc1)NC(=O)[C@H](CCCCN)NC(=O)[C@H](CO)NC(=O)[C@H](Cc1ccc(O)cc1)NC(=O)[C@H](CC(=O)O)NC(=O)[C@H](CO)NC(=O)[C@@H](NC(=O)[C@H](Cc1ccccc1)NC(=O)[C@@H](NC(=O)CNC(=O)[C@H](CCC(N)=O)NC(=O)[C@H](CO)NC(=O)[C@@H](N)Cc1c[nH]cn1)[C@@H](C)O)[C@@H](C)O)C(C)C)C(N)=O)C(=O)O
On to B3, for which the results for the cAMP EC50 (assay 1) in assay [1], in assay [2] and in assay [3] were 0.0942 nM, 1040 nM and 3.16 nM, respectively.

B4: g782 (peptide)
peptide: HSQGTFTSDYSKYLDSRK([γGlu-Palmitoyl])ARDFVAWLEAGG-NH2
modifications: N-terminus assumed
SMILES: CCCCCCCCCCCCCCCC(=O)N[C@@H](CCC(=O)NCCCC[C@H](NC(=O)[C@H](CCCNC(=N)N)NC(=O)[C@H](CO)NC(=O)[C@H](CC(=O)O)NC(=O)[C@H](CC(C)C)NC(=O)[C@H](Cc1ccc(O)cc1)NC(=O)[C@H](CCCCN)NC(=O)[C@H](CO)NC(=O)[C@H](Cc1ccc(O)cc1)NC(=O)[C@H](CC(=O)O)NC(=O)[C@H](CO)NC(=O)[C@@H](NC(=O)[C@H](Cc1ccccc1)NC(=O)[C@@H](NC(=O)CNC(=O)[C@H](CCC(N)=O)NC(=O)[C@H](CO)NC(=O)[C@@H](N)Cc1c[nH]cn1)[C@@H](C)O)[C@@H](C)O)C(=O)N[C@@H](C)C(=O)N[C@@H](CCCNC(=N)N)C(=O)N[C@@H](CC(=O)O)C(=O)N[C@@H](Cc1ccccc1)C(=O)N[C@H](C(=O)N[C@@H](C)C(=O)N[C@@H](Cc1c[nH]c2ccccc12)C(=O)N[C@@H](CC(C)C)C(=O)N[C@@H](CCC(=O)O)C(=O)N[C@@H](C)C(=O)NCC(=O)NCC(N)=O)C(C)C)C(=O)O
Turning to B4, the figures for the cAMP EC50 (assay 1) in assay [1], in assay [2] and in assay [3] were 0.156 nM, 1430 nM and 0.0254 nM, respectively.

B5: g837 (peptide)
peptide: HSQGTFTSDYSEYLDSK([γGlu-Palmitoyl])RARDFVAWLEAGG-NH2
modifications: N-terminus assumed
SMILES: CCCCCCCCCCCCCCCC(=O)N[C@@H](CCC(=O)NCCCC[C@H](NC(=O)[C@H](CO)NC(=O)[C@H](CC(=O)O)NC(=O)[C@H](CC(C)C)NC(=O)[C@H](Cc1ccc(O)cc1)NC(=O)[C@H](CCC(=O)O)NC(=O)[C@H](CO)NC(=O)[C@H](Cc1ccc(O)cc1)NC(=O)[C@H](CC(=O)O)NC(=O)[C@H](CO)NC(=O)[C@@H](NC(=O)[C@H](Cc1ccccc1)NC(=O)[C@@H](NC(=O)CNC(=O)[C@H](CCC(N)=O)NC(=O)[C@H](CO)NC(=O)[C@@H](N)Cc1c[nH]cn1)[C@@H](C)O)[C@@H](C)O)C(=O)N[C@@H](CCCNC(=N)N)C(=O)N[C@@H](C)C(=O)N[C@@H](CCCNC(=N)N)C(=O)N[C@@H](CC(=O)O)C(=O)N[C@@H](Cc1ccccc1)C(=O)N[C@H](C(=O)N[C@@H](C)C(=O)N[C@@H](Cc1c[nH]c2ccccc12)C(=O)N[C@@H](CC(C)C)C(=O)N[C@@H](CCC(=O)O)C(=O)N[C@@H](C)C(=O)NCC(=O)NCC(N)=O)C(C)C)C(=O)O
On to B5, for which the values for the cAMP EC50 (assay 1) in assay [1], in assay [2] and in assay [3] were 0.213 nM, 114 nM and 0.467 nM, respectively.

B6: g734 (peptide)
peptide: HSEGTFTSDYSEYLDSK([βAla-Palmitoyl])RARDFVAWLEAGG-NH2
modifications: N-terminus assumed
SMILES: CCCCCCCCCCCCCCCC(=O)NCCC(=O)NCCCC[C@H](NC(=O)[C@H](CO)NC(=O)[C@H](CC(=O)O)NC(=O)[C@H](CC(C)C)NC(=O)[C@H](Cc1ccc(O)cc1)NC(=O)[C@H](CCC(=O)O)NC(=O)[C@H](CO)NC(=O)[C@H](Cc1ccc(O)cc1)NC(=O)[C@H](CC(=O)O)NC(=O)[C@H](CO)NC(=O)[C@@H](NC(=O)[C@H](Cc1ccccc1)NC(=O)[C@@H](NC(=O)CNC(=O)[C@H](CCC(=O)O)NC(=O)[C@H](CO)NC(=O)[C@@H](N)Cc1c[nH]cn1)[C@@H](C)O)[C@@H](C)O)C(=O)N[C@@H](CCCNC(=N)N)C(=O)N[C@@H](C)C(=O)N[C@@H](CCCNC(=N)N)C(=O)N[C@@H](CC(=O)O)C(=O)N[C@@H](Cc1ccccc1)C(=O)N[C@H](C(=O)N[C@@H](C)C(=O)N[C@@H](Cc1c[nH]c2ccccc12)C(=O)N[C@@H](CC(C)C)C(=O)N[C@@H](CCC(=O)O)C(=O)N[C@@H](C)C(=O)NCC(=O)NCC(N)=O)C(C)C
In the case of B6, the figures for the cAMP EC50 (assay 1) in assay [1], in assay [2] and in assay [3] were 82.8 nM, 1170 nM and 0.0695 nM, respectively.

B7: g838 (peptide)
peptide: HSQGTFTSDYSEYLDSK([Ahx-Palmitoyl])RARDFVAWLEAGG-NH2
modifications: N-terminus assumed
SMILES: CCCCCCCCCCCCCCCC(=O)NCCCCCC(=O)NCCCC[C@H](NC(=O)[C@H](CO)NC(=O)[C@H](CC(=O)O)NC(=O)[C@H](CC(C)C)NC(=O)[C@H](Cc1ccc(O)cc1)NC(=O)[C@H](CCC(=O)O)NC(=O)[C@H](CO)NC(=O)[C@H](Cc1ccc(O)cc1)NC(=O)[C@H](CC(=O)O)NC(=O)[C@H](CO)NC(=O)[C@@H](NC(=O)[C@H](Cc1ccccc1)NC(=O)[C@@H](NC(=O)CNC(=O)[C@H](CCC(N)=O)NC(=O)[C@H](CO)NC(=O)[C@@H](N)Cc1c[nH]cn1)[C@@H](C)O)[C@@H](C)O)C(=O)N[C@@H](CCCNC(=N)N)C(=O)N[C@@H](C)C(=O)N[C@@H](CCCNC(=N)N)C(=O)N[C@@H](CC(=O)O)C(=O)N[C@@H](Cc1ccccc1)C(=O)N[C@H](C(=O)N[C@@H](C)C(=O)N[C@@H](Cc1c[nH]c2ccccc12)C(=O)N[C@@H](CC(C)C)C(=O)N[C@@H](CCC(=O)O)C(=O)N[C@@H](C)C(=O)NCC(=O)NCC(N)=O)C(C)C
B7: the cAMP EC50 (assay 1) stood at 0.00568 nM in assay [1], 84.3 nM in assay [2] and 0.0237 nM in assay [3].
